# In US20170313754A1 (PROTAGONIST THERAPEUTICS, published 2017):
# Numbered stars: 1 amine (or outer) side, 2 acyl side, 3 side chain; on linkers, the order of the positions; unused ones are H or OH. Bridge positions count the residues as written; N and C are the ends. Square brackets hold non-standard residues; d marks the D form. Primed or numbered codes have the meaning given here. Ends that are not written are not given here. * marks the point of attachment. Ida = iminodiacetic acid, O=C(CN(CC(=O)[*:3])[*:1])[*:2]; PEG3′ = NH2CH2CH2(OCH2CH2)3CH2CH2CO2H (PEG3 linker); Dip = N[C@H](C(=O)O)C(c1ccccc1)c1ccccc1; Palmitoyl = CCCCCCCCCCCCCCCC(=O)*; pGlu = O=C1CC[C@@H](C(=O)O)N1; β3hP = O=C(O)C[C@@H]1CCCN1; Isovaleryl = CC(C)CC(=O)*; Isobutyryl = CC(C)C(=O)*; Octanoyl = CCCCCCCC(=O)*; βAla = NCCC(=O)O; Sar = CNCC(=O)O
# Target: T1, human ferroportin (SLC40A1) fused in frame with GFP, stably expressed in HEK293 cells (human, UniProt Q9NP59 1-571)
# T1 sequence (looked up): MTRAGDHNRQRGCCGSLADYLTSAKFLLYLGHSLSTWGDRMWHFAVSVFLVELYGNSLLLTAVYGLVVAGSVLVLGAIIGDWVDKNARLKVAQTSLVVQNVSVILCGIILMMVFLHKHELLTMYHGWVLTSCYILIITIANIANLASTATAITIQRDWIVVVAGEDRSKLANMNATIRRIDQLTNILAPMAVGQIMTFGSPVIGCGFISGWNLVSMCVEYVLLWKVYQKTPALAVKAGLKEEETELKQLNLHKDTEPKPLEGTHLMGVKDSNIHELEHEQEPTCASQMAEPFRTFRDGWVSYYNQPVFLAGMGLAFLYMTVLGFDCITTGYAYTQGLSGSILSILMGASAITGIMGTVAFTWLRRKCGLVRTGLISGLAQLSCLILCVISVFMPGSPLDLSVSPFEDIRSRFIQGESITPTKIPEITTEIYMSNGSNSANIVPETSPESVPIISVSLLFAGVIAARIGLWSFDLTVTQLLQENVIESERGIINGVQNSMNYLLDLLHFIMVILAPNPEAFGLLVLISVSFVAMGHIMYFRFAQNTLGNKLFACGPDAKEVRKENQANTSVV
# Experiment: cell-based or functional assay
row,Binder,"Potency EC50 (nM), ferroportin-GFP internalization/degradation [nM]"
1,Isovaleryl-SKHAPCIKFEPRSKGWECK-NH2 (disulfide 6-18 (inferred)) [Isovaleric acid-SKHAPCIKFEPRSKGWECK-NH2],> 10000
2,Isovaleryl-DTHAPCIKFEPRSK[Sar]WECK-NH2 (disulfide 6-18 (inferred)) [Isovaleric acid-DTHAPCIKFEPRSK-[Sarc]-WECK-NH2],> 10000
3,Isovaleryl-DTHFGCIKFEPRSKEWVCK-NH2 (not fully specified (bridges); cysteine pairing not given here) [Isovaleric acid-DTHFGCIKFEPRSKEWVCK-NH2],> 1000
4,Isovaleryl-DTHFPCIKFEPRSK(Octanoyl)EWVCK-NH2 (disulfide 6-18 (inferred)) [Isovaleric acid-DTHFPCIKFEPRS-K(octanoic acid)-EWVCK-NH2],62
5,Isovaleryl-DTHFPCIKFEPHSKEWVCK-NH2 (not fully specified (bridges); cysteine pairing not given here) [Isovaleric acid-DTHFPCIKFEPHSKEWVCK-NH2],80
6,Isovaleryl-DTHFPCIIF[PEG3′]C-NH2 (cysteine pairing not given here) [Isovaleric acid-DTHFPCIIF-[PEG3]-C-NH2],157
7,Isovaleryl-DTHAPCIKF[Sar]PRSKGWECK-NH2 (disulfide 6-18 (inferred)) [Isovaleric acid-DTHAPCIKF-[Sarc]-PRSKGWECK-NH2],> 10000
8,Isovaleryl-STHAPCIKFEPRSKGWECK-NH2 (disulfide 6-18 (inferred)) [Isovaleric acid-STHAPCIKFEPRSKGWECK-NH2],> 10000
9,Isovaleryl-DTHAPCIKFEPRSKEWECK-NH2 (not fully specified (bridges); cysteine pairing not given here) [Isovaleric acid-DTHAPCIKFEPRSKEWECK-NH2],> 10000
10,Isovaleryl-DTEFPCIKFEPRSKEWVCK-NH2 (disulfide 6-18 (inferred)) [Isovaleric acid-DTEFPCIKFEPRSKEWVCK-NH2],> 1000

# Target: T2, human ferroportin (SLC40A1) fused in frame with GFP, stably expressed in HEK293 cells (human, UniProt Q9NP59 1-571)
# T2 sequence (looked up): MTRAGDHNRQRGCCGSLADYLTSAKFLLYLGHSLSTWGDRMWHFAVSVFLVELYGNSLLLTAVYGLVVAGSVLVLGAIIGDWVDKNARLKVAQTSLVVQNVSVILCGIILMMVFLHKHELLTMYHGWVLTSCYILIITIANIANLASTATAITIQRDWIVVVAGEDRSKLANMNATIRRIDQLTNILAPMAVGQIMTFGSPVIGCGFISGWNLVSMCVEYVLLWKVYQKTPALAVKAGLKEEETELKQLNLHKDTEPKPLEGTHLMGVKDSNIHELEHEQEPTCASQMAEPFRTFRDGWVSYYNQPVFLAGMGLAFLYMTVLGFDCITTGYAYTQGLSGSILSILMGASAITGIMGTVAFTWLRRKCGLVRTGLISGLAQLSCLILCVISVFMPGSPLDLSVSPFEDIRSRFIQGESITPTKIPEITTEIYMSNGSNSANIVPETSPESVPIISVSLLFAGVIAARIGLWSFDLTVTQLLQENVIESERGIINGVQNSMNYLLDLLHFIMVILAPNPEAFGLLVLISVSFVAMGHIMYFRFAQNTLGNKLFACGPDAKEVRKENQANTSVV
# Experiment: cell-based or functional assay
Binder,Potency EC50 (nM),Potency EC50 [nM]
H-DTHFPIAIFGPRSKGWVAM-NH2 [Hy-DTHFPIAIFGPRSKGWVAM-NH2],> 10000,
H-DTHFPCRRFGPRSKGWVC-NH2 (disulfide 6-18 (inferred)) [Hy-DTHFPCRRFGPRSKGWVC-NH2],> 10000,
H-THFPCIIFGPRSKGWVCK-NH2 (disulfide 5-17 (inferred)) [Hy-THFPCIIFGPRSKGWVCK-NH2],> 10000,
H-DTHFRCIIFGPRSKGWVCK-NH2 (disulfide 6-18 (inferred)) [Hy-DTHFRCIIFGPRSKGWVCK-NH2],> 1000,
"Isobutyryl-DTHFPICIFVCHRSKGCYRRCR-NH2 (disulfide 11-17, 7-21; SMILES CC[C@H](C)[C@@H]1NC(=O)[C@@H](NC(=O)[C@@H](NC(=O)[C@@H]2CCCN2C(=O)[C@H](Cc2ccccc2)NC(=O)[C@H](Cc2c[nH]cn2)NC(=O)[C@@H](NC(=O)[C@H](CC(=O)O)NC(=O)C(C)C)[C@@H](C)O)[C@@H](C)CC)CSSC[C@@H](C(=O)N[C@@H](CCCNC(=N)N)C(N)=O)NC(=O)[C@H](CCCNC(=N)N)NC(=O)[C@H](CCCNC(=N)N)NC(=O)[C@H](Cc2ccc(O)cc2)NC(=O)[C@@H]2CSSC[C@H](NC(=O)[C@H](C(C)C)NC(=O)[C@H](Cc3ccccc3)NC1=O)C(=O)N[C@@H](Cc1c[nH]cn1)C(=O)N[C@@H](CCCNC(=N)N)C(=O)N[C@@H](CO)C(=O)N[C@@H](CCCCN)C(=O)NCC(=O)N2) [Isobutyric acid-DTHFPIC1IFVC2HRSKGC2YRRC1R-NH2, listing 1 of 2 here]",,63
[Ida]TH[Dip][β3hP]ICIFGPRSKGWVCM-NH2 (disulfide 7-18 (inferred)) [[Ida]-TH-[Dpa]-[bhPro]-ICIFGPRSKGWVCM-NH2],,17
"Isobutyryl-DTHFPICIFVCHRSKGCYRRCR-NH2 (disulfide 11-17, 7-21; SMILES CC[C@H](C)[C@@H]1NC(=O)[C@@H](NC(=O)[C@@H](NC(=O)[C@@H]2CCCN2C(=O)[C@H](Cc2ccccc2)NC(=O)[C@H](Cc2c[nH]cn2)NC(=O)[C@@H](NC(=O)[C@H](CC(=O)O)NC(=O)C(C)C)[C@@H](C)O)[C@@H](C)CC)CSSC[C@@H](C(=O)N[C@@H](CCCNC(=N)N)C(N)=O)NC(=O)[C@H](CCCNC(=N)N)NC(=O)[C@H](CCCNC(=N)N)NC(=O)[C@H](Cc2ccc(O)cc2)NC(=O)[C@@H]2CSSC[C@H](NC(=O)[C@H](C(C)C)NC(=O)[C@H](Cc3ccccc3)NC1=O)C(=O)N[C@@H](Cc1c[nH]cn1)C(=O)N[C@@H](CCCNC(=N)N)C(=O)N[C@@H](CO)C(=O)N[C@@H](CCCCN)C(=O)NCC(=O)N2) [Isobutyric acid-DTHFPIC1IFVC2HRSKGC2YRRC1R-NH2, listing 2 of 2 here]",,93
H-DTHFGCIIFGPRSKGWVCK-NH2 (disulfide 6-18 (inferred)) [Hy-DTHFGCIIFGPRSKGWVCK-NH2],> 1000,
H-DTHFKCIIFGPRSKGWVCK-NH2 (disulfide 6-18 (inferred)) [Hy-DTHFKCIIFGPRSKGWVCK-NH2],> 1000,
H-HFPCIIFGPRSKGWVCK-NH2 (disulfide 4-16 (inferred)) [Hy-HFPCIIFGPRSKGWVCK-NH2],> 10000,
"H-DTHFPCIIFVCHRSKGCYWAVCFW-NH2 (disulfide 11-17, 6-22; SMILES CC[C@H](C)[C@@H]1NC(=O)[C@@H](NC(=O)[C@@H]2CCCN2C(=O)[C@H](Cc2ccccc2)NC(=O)[C@H](Cc2c[nH]cn2)NC(=O)[C@@H](NC(=O)[C@@H](N)CC(=O)O)[C@@H](C)O)CSSC[C@@H](C(=O)N[C@@H](Cc2ccccc2)C(=O)N[C@@H](Cc2c[nH]c3ccccc23)C(N)=O)NC(=O)[C@H](C(C)C)NC(=O)[C@H](C)NC(=O)[C@H](Cc2c[nH]c3ccccc23)NC(=O)[C@H](Cc2ccc(O)cc2)NC(=O)[C@@H]2CSSC[C@H](NC(=O)[C@H](C(C)C)NC(=O)[C@H](Cc3ccccc3)NC(=O)[C@H]([C@@H](C)CC)NC1=O)C(=O)N[C@@H](Cc1c[nH]cn1)C(=O)N[C@@H](CCCNC(=N)N)C(=O)N[C@@H](CO)C(=O)N[C@@H](CCCCN)C(=O)NCC(=O)N2) [Hy-DTHFPC1IIFVC2HRSKGC2YWAVC1FW-NH2]",> 10000,

# The remaining lines, values ahead:
Potency EC50 (nM),Potency EC50 [nM],Binder
,1,Isovaleryl-DTHFPCIKFGPRSK(Palmitoyl)GWVCK-NH2 (disulfide 6-18 (inferred)) [Isovaleric acid-DTHFPCIKFGPRS-K(Palm)-GWVCK-NH2]
,9,DTHFPCIKFKPRSKGWVCK (N-terminal isovaleric acid; Palm on the side chain of Lys 10; C-terminal amide) [Isovaleric acid-DTHFPCIKF-K(Palm)-PRSKGWVCK-NH2]
> 10000,,Isovaleryl-HFPCIIFGPRSKGWVCK-NH2 (disulfide 4-16 (inferred)) [Isovaleric acid-HFPCIIFGPRSKGWVCK-NH2]
> 10000,,Isovaleryl-THFPCIIFGPRSKGWVCK-NH2 (disulfide 5-17 (inferred)) [Isovaleric acid-THFPCIIFGPRSKGWVCK-NH2]
> 1000,,H-DTHF[Sar]CIIFGPRSKGWVCK-NH2 (disulfide 6-18 (inferred)) [Hy-DTHF-[Sarc]-CIIFGPRSKGWVCK-NH2]
,260,"[pGlu]THFPICIFVCHRSKGCYRRCR-NH2 (disulfide 11-17, 7-21; SMILES CC[C@H](C)[C@@H]1NC(=O)[C@@H](NC(=O)[C@@H](NC(=O)[C@@H]2CCCN2C(=O)[C@H](Cc2ccccc2)NC(=O)[C@H](Cc2c[nH]cn2)NC(=O)[C@@H](NC(=O)[C@@H]2CCC(=O)N2)[C@@H](C)O)[C@@H](C)CC)CSSC[C@@H](C(=O)N[C@@H](CCCNC(=N)N)C(N)=O)NC(=O)[C@H](CCCNC(=N)N)NC(=O)[C@H](CCCNC(=N)N)NC(=O)[C@H](Cc2ccc(O)cc2)NC(=O)[C@@H]2CSSC[C@H](NC(=O)[C@H](C(C)C)NC(=O)[C@H](Cc3ccccc3)NC1=O)C(=O)N[C@@H](Cc1c[nH]cn1)C(=O)N[C@@H](CCCNC(=N)N)C(=O)N[C@@H](CO)C(=O)N[C@@H](CCCCN)C(=O)NCC(=O)N2) [pGlu-THFPIC1IFVC2HRSKGC2YRRC1R-NH2]"
,264,Isovaleryl-DTHF[βAla]CIIFGPRSKGWVCK-NH2 (not fully specified (bridges); cysteine pairing not given here) [Isovaleric acid-DTHF-[β-Ala]-CIIFGPRSKGWVCK-NH2]
,2,Isovaleryl-DTHFPCIKFGPK(Palmitoyl)SKGWVCK-NH2 (not fully specified (bridges); cysteine pairing not given here) [Isovaleric acid-DTHFPCIKFGP-K(Palm)-SKGWVCK-NH2]
> 1000,,H-DTHF[βAla]CIIFGPRSKGWVCK-NH2 (disulfide 6-18 (inferred)) [Hy-DTHF-[β-Ala]-CIIFGPRSKGWVCK-NH2]
